For this data set, the target named is T1, phosphorylated HGFR (pHGFR) (Homo sapiens, UniProt P08581).
T1 construct: The cDNA corresponding to residues 1051-1349 of the HGFR kinase catalytic domain (HGFRkd) was cloned into a pFastBac plasmid; added N-terminal methionine (start codon of the NcoI site) (N); made in house; host or cells: Sf9 insect cells, recombinant baculovirus; then autophosphorylated in vitro with MgATP
Put plainly: Coupled enzymatic (PK/LDH) kinase assay, phospho-HGFR. The settings on record: coupled, enzymatic format; phosphorylation state of HGFR not stated; read-out: Km, Dephosphorylated α-casein. The data set is classed as biochemical. How it is done:
A coupled enzymatic assay format was used to measure both HGFR and phospho-HGFR(PHGFR) activities. The kinase-catalyzed production of ADP from ATP that accompanies phosphate transfer to the random copolymer poly(Glu4Tyr) or peptide substrate was coupled to the oxidation of NADH through the activities of pyruvate kinase (PK) and lactate dehydrogenase (LDH). NADH conversion to NAD^+ was monitored by the decrease in absorbance at 340 nm (ε=6.22 cm^−1 mM^−1) using a Beckman DU650 spectrophotometer. A typical reaction solution contained 1 mM phosphoenolpyruvate, 0.24 mM NADH, 40 mM MgCl2, 5 mM DTT, poly(Glu4Tyr), ATP, 15 units/mL PK, 15 units/mL LDH in 100 mM HEPES, pH 7.5. […]
The kinetic consequences of the autophosphorylation were investigated. HGFR and pHGFR activities were evaluated in two distinct and complementing assay formats. […] NADH conversion to NAD^+ was monitored spectrophotometrically by the decrease in absorbance at 340 nm (ε=6.22 cm^−1 mM^−1). […]
Inhibition of HGFR and pHGFR were monitored in two distinct assay formats to insure valid results. The coupled, enzymatic format (CE) was a continuous assay that measured ADP production through the sequential action of two standard coupling enzymes (pyruvate kinase and lactate dehydrogenase). The radioactive assay format was a discontinuous assay that measured phospho-protein production directly. […]

T1 sequence (P08581 1051-1349): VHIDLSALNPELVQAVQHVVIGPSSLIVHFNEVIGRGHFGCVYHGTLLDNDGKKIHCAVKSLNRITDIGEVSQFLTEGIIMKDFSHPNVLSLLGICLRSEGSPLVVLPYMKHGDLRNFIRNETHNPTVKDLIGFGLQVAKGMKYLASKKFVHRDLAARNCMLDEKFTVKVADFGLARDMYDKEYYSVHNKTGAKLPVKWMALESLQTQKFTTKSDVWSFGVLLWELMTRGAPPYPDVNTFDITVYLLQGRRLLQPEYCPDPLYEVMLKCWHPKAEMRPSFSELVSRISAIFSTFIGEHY

B1: Dephosphorylated α-casein: phosphoacceptor protein substrate for HGFR (protein)
chain: RPKHPIKHQGLPQEVLNENLLRFFVAPFPEVFGKEKVNELSKDIGSESTEDQAMEDIKQMEAESISSSEEIVPNSVEQKHIQKEDVPSERYLGYLEQLLRLKKYKVPQLEIVPNSAEERLHSMKEGIHAQQKEPMIGVNQELAYFYPELFRQFYQLDAYPSGAWYYVPLGTQYTDAPSFSDIPNPIGSENSEKTTMPLW
With B1, the Km was found to be 28.5 ± 3.5 µM.

These data come from US20040009568A1, “Catalytic domains of the human hepatocyte growth factor receptor tyrosine kinase, and materials and methods for identification of inhibitors thereof” (priority 2001, published 2004).
